According to article PMC7181223, “A DyP-Type Peroxidase of Pleurotus sapidus with Alkene Cleaving Activity” (Molecules, 2020):

Substrate: CCn1c(=NN=c2sc3cc(S(=O)(=O)O)ccc3n2CC)sc2cc(S(=O)(=O)O)ccc21
Experiment: purified protein
Format: biochemical, Pleurotus sapidus
Conditions: 100 µM H2O2, 25 mM MnSO4, optimal pH and temperature (pH 3.5, 40 °C)

B1: PsaPOX (DyP-type peroxidase of Pleurotus sapidus) (Pleurotus sapidus) (protein)
chain: MTTPAPPLDLNNIQGDILGGLPKKTETYFFFDVTNVDRFKANMTQFIPHVKTSAGIVKDREAIKEHKRQKRPGLVPMAAVNVSFSHLGLQKLGITDDLSDSSFTTGQRKDAEVLGDPGTKNGDTFTPAWEAPFLKDIHGVIFVAGDCHASVHKKLDEIKHIFGVGTSHASISEVTHVRGDVRPGQVSAHEHFGFLDGISNPAVDQFDQNPFPGQDSIRPGFILAKENGDSRAAARPDWAKDGSFLTFRYLFQMVPEFDDFLESNPIVLPGLSRKEGSELLGARIVGRWKSGAPIEITPLKDDPKLGADAQRNNNFDFGDSLVRGDQTKCPFAAHIRKTYPRNDLEGPPLNADIDNRRIIRRGIQFGPEVTSQEHHDKKTHHGRGLLFVCYSSSIDDGFHFIQQSWANAPNFPVNAVTSAGPIPPLDGVIPGFDAIIGQKVGGGIRQISGTNPNDPTTNITLPDQDFVIPRGGEYFFSPSISALKTKFAAGVASSAPQAQAPIST
notes: full-length ORF (1512 bp, 504 aa), C-terminal 6x His tag kept, S. cerevisiae alpha-factor secretion signal (pPIC9), Komagataella pfaffii GS115, Ni-NTA; monomeric
  Km: 37 ± 4 µM
  kcat/Km: 184000 ± 5000 M⁻¹ s⁻¹
